Experimental data published in article PMC6620098 (Science Advances, 2019).

B1: Elp3 (endogenous, in the Elp123 subcomplex) (enzyme, UniProt Q02908 1-557, looked up)
chain: MARHGKGPKTNKKKLAPEKERFIQCCADITLELTDSLTSGTTREINLNGLITKYSKKYKLKQQPRLTDIINSIPDQYKKYLLPKLKAKPVRTASGIAVVAVMCKPHRCPHIAYTGNICVYCPGGPDSDFEYSTQSYTGYEPTSMRAIRARYDPYEQARGRVEQLKQLGHSIDKVEYVLMGGTFMSLPKEYREDFIVKLHNALSGFNGNDIDEAILYSQQSLTKCVGITIETRPDYCTQTHLDDMLKYGCTRLEIGVQSLYEDVARDTNRGHTVRSVCETFAVSKDAGYKVVSHMMPDLPNVGMERDIEQFKEYFENPDFRTDGLKIYPTLVIRGTGLYELWKTGRYKSYSANALVDLVARILALVPPWTRIYRVQRDIPMPLVTSGVDNGNLRELALARMKDLGTTCRDVRTREVGIQEVHHKVQPDQVELIRRDYYANGGWETFLSYEDPKKDILIGLLRLRKASKKYTYRKEFTSQRTSIVRELHVYGSVVPLHSRDPRKFQHQGFGTLLMEEAERIAKEEHGSEKISVISGVGVRNYYGKLGYELDGPYMSKRI
B2: Elp2 (endogenous, in the Elp123 subcomplex) (natural protein, UniProt P42935 1-788, looked up)
chain: MVECITPEAIFIGANKQTQVSDIHKVKKIVAFGAGKTIALWDPIEPNNKGVYATLKGHEAEVTCVRFVPDSDFMVSASEDHHVKIWKFTDYSHLQCIQTIQHYSKTIVALSALPSLISVGCADGTISIWRQNIQNDEFGLAHEFTIKKGFFYPLCLSLSKVEEKKYLLAIGGTNVNVFIASFILSDSGIEKCRVVAELEGHEDWVKSLAFRHQETPGDYLLCSGSQDRYIRLWRIRINDLIDDSEEDSKKLTLLSNKQYKFQIDDELRVGINFEALIMGHDDWISSLQWHESRLQLLAATADTSLMVWEPDETSGIWVCSLRLGEMSSKGASTATGSSGGFWSCLWFTHERMDFFLTNGKTGSWRMWATKDNIICDQRLGISGATKDVTDIAWSPSGEYLLATSLDQTTRLFAPWIYDASGRKREIATWHEFSRPQIHGYDMICVETVTDTRFVSGGDEKILRSFDLPKGVAGMLQKFVGIQFEEKSEMPDSATVPVLGLSNKAGEDDANEDDEEEEGGNKETPDITDPLSLLECPPMEDQLQRHLLWPEVEKLYGHGFEITCLDISPDQKLIASACRSNNVQNAVIRIFSTENWLEIKPALPFHSLTITRLKFSKDGKFLLSVCRDRKWALWERNMEDNTFELRFKNEKPHTRIIWDADWAPLEFGNVFVTASRDKTVKVWRHQKEPADDYVLEASIKHTKAVTAISIHDSMIREKILISVGLENGEIYLYSYTLGKFELITQLNEDITPADKITRLRWSHLKRNGKLFLGVGSSDLSTRIYSLAYE
B3: Elp1-3xFLAG (endogenous, in the Elp123 subcomplex) (natural protein, S. cerevisiae, UniProt Q06706 1-1349, looked up)
chain: MVEHDKSGSKRQELRSNMRNLITLNKGKFKPTASTAEGDEDDLSFTLLDSVFDTLSDSITCVLGSTDIGAIEVQQFMKDGSRNVLASFNIQTFDDKLLSFVHFADINQLVFVFEQGDIITATYDPVSLDPAETLIEIMGTIDNGIAAAQWSYDEETLAMVTKDRNVVVLSKLFEPISEYHLEVDDLKISKHVTVGWGKKETQFRGKGARAMEREALASLKASGLVGNQLRDPTMPYMVDTGDVTALDSHEITISWRGDCDYFAVSSVEEVPDEDDETKSIKRRAFRVFSREGQLDSASEPVTGMEHQLSWKPQGSLIASIQRKTDLGEEDSVDVIFFERNGLRHGEFDTRLPLDEKVESVCWNSNSEALAVVLANRIQLWTSKNYHWYLKQELYASDISYVKWHPEKDFTLMFSDAGFINIVDFAYKMAQGPTLEPFDNGTSLVVDGRTVNITPLALANVPPPMYYRDFETPGNVLDVACSFSNEIYAAINKDVLIFAAVPSIEEMKKGKHPSIVCEFPKSEFTSEVDSLRQVAFINDSIVGVLLDTDNLSRIALLDIQDITQPTLITIVEVYDKIVLLRSDFDYNHLVYETRDGTVCQLDAEGQLMEITKFPQLVRDFRVKRVHNTSAEDDDNWSAESSELVAFGITNNGKLFANQVLLASAVTSLEITDSFLLFTTAQHNLQFVHLNSTDFKPLPLVEEGVEDERVRAIERGSILVSVIPSKSSVVLQATRGNLETIYPRIMVLAEVRKNIMAKRYKEAFIVCRTHRINLDILHDYAPELFIENLEVFINQIGRVDYLNLFISCLSEDDVTKTKYKETLYSGISKSFGMEPAPLTEMQIYMKKKMFDPKTSKVNKICDAVLNVLLSNPEYKKKYLQTIITAYASQNPQNLSAALKLISELENSEEKDSCVTYLCFLQDVNVVYKSALSLYDVSLALLVAQKSQMDPREYLPFLQELQDNEPLRRKFLIDDYLGNYEKALEHLSEIDKDGNVSEEVIDYVESHDLYKHGLALYRYDSEKQNVIYNIYAKHLSSNQMYTDAAVAYEMLGKLKEAMGAYQSAKRWREAMSIAVQKFPEEVESVAEELISSLTFEHRYVDAADIQLEYLDNVKEAVALYCKAYRYDIASLVAIKAKKDELLEEVVDPGLGEGFGIIAELLADCKGQINSQLRRLRELRAKKEENPYAFYGQETEQADDVSVAPSETSTQESFFTRYTGKTGGTAKTGASRRTAKNKRREERKRARGKKGTIYEEEYLVQSVGRLIERLNQTKPDAVRVVEGLCRRNMREQAHQIQKNFVEVLDLLKANVKEIYSISEKDRERVNENGEVYYIPEIPVPEIHDFPKSHIVDF

Assays:
Test in all cases: cryo-EM structure
[1] = molecular target: B2
[2] = molecular target: B3
cryo-EM structure = molecular target: the molecule itself

Binder | binding result [1] | binding result [2] | stoichiometry N (cryo-EM structure)
B1 | binds | binds | 
B2 |  | binds | 
B3 |  |  | 2
